This note sets out measurements from US20120148499A1.

The target of this assay is purified myelin basic protein (MBP). Briefly: peptide binding to MBP-crosslinked beads against control beads without MBP.

Primed or numbered codes have the meaning given here. 5,6FAM″ = fluorescein-5(6)-carbonyl on the lysine (K(5,6FAM))

Ac-SHSTYTDWLNFWAWPGK(5,6FAM″)-NH2 [acetyl-…(5,6FAM)-amide] gave a fold increase in binding to MBP crosslinked beads over control beads (no MBP) of 10 fold.
